Data on three molecules can be found in article PMC6180126, “A guanine-flipping and sequestration mechanism for G-quadruplex unwinding by RecQ helicases”.

In series [1] the target is T1, CsRecQ catalytic core S245A (Cronobacter sakazakii, UniProt A7MQK9 1-521, S245A). The series is described as follows: X-ray crystallography; discontinuous density in helicase/winged-helix cleft; 20 mM Tris-HCl pH 8.0, 100 mM NaCl, 1 mM MgCl2, 1 mM 2-mercaptoethanol, 0.1 mg/mL BSA, 4% glycerol; 5 nM DNA, 30 min at room temperature, read at 25 C (G4 folded in 10 mM Tris-HCl pH 8.0, 100 mM KCl). To be noted: protein: recombinant; tags: N-terminal His tag removed (thrombin); antiparallel G4 with 12 nt 3' ssDNA tail; resolved (unwound) in 6CRM.

The target of series [2] is CsRecQ catalytic core (Cronobacter sakazakii, UniProt A7MQK9 1-521). The series can be described thus: fluorescence anisotropy; apparent Kd; 1 mM Mg2+; 20 mM Tris-HCl pH 8.0, 100 mM NaCl, 1 mM MgCl2, 1 mM 2-mercaptoethanol, 0.1 mg/mL BSA, 4% glycerol; 5 nM DNA, 30 min at room temperature, read at 25 C (G4 folded in 10 mM Tris-HCl pH 8.0, 100 mM KCl). The settings on record: protein: recombinant, tags: N-terminal His tag removed (thrombin). A general note: Polarisation of emitted light reports the rotation of a fluorescent probe.

The target of series [3] is EcRecQ catalytic core (Escherichia coli, UniProt P15043 1-523). The series is described as above. The settings on record: protein: recombinant, tags: N-terminal His tag removed (thrombin).
The target in series [4] is EcRecQ catalytic core D312A (Escherichia coli, UniProt P15043 1-523, D312A). The series is described as above. To be noted: protein: recombinant, tags: N-terminal His tag removed (thrombin).
In series [5] the target is T1, CsRecQ catalytic core S245A. The series is described as follows: fluorescence anisotropy; 1 mM Mg2+; Kd not determined (anisotropy decreased with time); 20 mM Tris-HCl pH 8.0, 100 mM NaCl, 1 mM MgCl2, 1 mM 2-mercaptoethanol, 0.1 mg/mL BSA, 4% glycerol; 5 nM DNA, 30 min at room temperature, read at 25 C (G4 folded in 10 mM Tris-HCl pH 8.0, 100 mM KCl). The settings on record: protein: recombinant; tags: N-terminal His tag removed (thrombin); label: 3' FAM; intramolecular G4 (folded in 100 mM KCl) with 12 nt 3' ssDNA tail.

The target in series [6] is T2, EcRecQ catalytic core S245A (Escherichia coli, UniProt P15043 1-523, S245A). Described as above. The settings on record: protein: recombinant; tags: N-terminal His tag removed (thrombin); label: 3' FAM; intramolecular G4 (folded in 100 mM KCl) with 12 nt 3' ssDNA tail.
In series [7] the target is T1, CsRecQ catalytic core S245A. The series is described as follows: fluorescence anisotropy; apparent Kd; 1 mM Mg2+; 20 mM Tris-HCl pH 8.0, 100 mM NaCl, 1 mM MgCl2, 1 mM 2-mercaptoethanol, 0.1 mg/mL BSA, 4% glycerol; 5 nM DNA, 30 min at room temperature, read at 25 C (G4 folded in 10 mM Tris-HCl pH 8.0, 100 mM KCl). The settings on record: protein: recombinant; tags: N-terminal His tag removed (thrombin); label: 3' FAM on Duplex 1; 18 bp, 3' overhang 12 nt on strand 1.

Series [8] concerns the target T2, EcRecQ catalytic core S245A. Described as above. To be noted: protein: recombinant; tags: N-terminal His tag removed (thrombin); label: 3' FAM on Duplex 1; 18 bp, 3' overhang 12 nt on strand 1.
The mark [9] stands for this setting: label: 3' FAM, intramolecular G4 (folded in 100 mM KCl) with 12 nt 3' ssDNA tail.
Where [10] appears, read: label: 3' FAM on Duplex 1, 18 bp, 3' overhang 12 nt on strand 1.

On to TTAGGGTTAGGGTTAGGGTTAGGGTCGGTGCCTTACT (structured_DNA) [G4 DNA], for which the binding result in series [1] is reported as “binds”.

For the molecule TTAGGGTTAGGGTTAGGGTTAGGGTCGGTGCCTTACT (structured_DNA) [F-G4], the Kd amounted to 4700 ± 900 nM in series [2] (setting [9]), 1000 ± 100 nM in series [3] (setting [9]) and 330 ± 40 nM in series [4] (setting [9]). Moreover, the binding result in series [5] and in series [6] was “binds” in each case.

B1: Duplex 1/Duplex 2 (dsDNA)
DNA 1: GCGTGGGTAATTGTGCTTCAATGGACTGAC
DNA 2: AAGCACAATTACCCACGC
For the molecule B1, the Kd is 2900 ± 300 nM in series [2] (setting [10]); 4000 ± 1600 nM in series [7]; 2200 ± 200 nM in series [8]; 950 ± 60 nM in series [3] (setting [10]); 280 ± 20 nM in series [4] (setting [10]).
